{
  "source": "paper PMC9343967",
  "about": "(Nature, 2021)",
  "binders": {"B1": {"name": "ALK_(TG–EGFL) (human ALK residues 648–1038) (domain or fragment, UniProt Q9UM73 648-1038, looked up)", "chain": "TAPKSRNLFERNPNKELKPGENSPRQTPIFDPTVHWLFTTCGASGPHGPTQAQCNNAYQNSNLSVEVGSEGPLKGIQIWKVPATDTYSISGYGAAGGKGGKNTMMRSHGVSVLGIFNLEKDDMLYILVGQQGEDACPSTNQLIQKVCIGENNVIEEEIRVNRSVHEWAGGGGGGGGATYVFKMKDGVPVPLIIAAGGGGRAYGAKTDTFHPERLENNSSVLGLNGNSGAAGGGGGWNDNTSLLWAGKSLQEGATGGHSCPQAMKKWGWETRGGFGGGGGGCSSGGGGGGYIGGNAASNNDPEMDGEDGVSFISPLGILYTPALKVMEGHGEVNIKHYLNCSHCEVDECHMDPESHKVICFCDHGTVLAEDGVSCIVSPTPEPHLPLSLILS"}, "B2": {"name": "ALKTG (human ALK residues 648–985) (domain or fragment, UniProt Q9UM73 648-985, looked up)", "chain": "TAPKSRNLFERNPNKELKPGENSPRQTPIFDPTVHWLFTTCGASGPHGPTQAQCNNAYQNSNLSVEVGSEGPLKGIQIWKVPATDTYSISGYGAAGGKGGKNTMMRSHGVSVLGIFNLEKDDMLYILVGQQGEDACPSTNQLIQKVCIGENNVIEEEIRVNRSVHEWAGGGGGGGGATYVFKMKDGVPVPLIIAAGGGGRAYGAKTDTFHPERLENNSSVLGLNGNSGAAGGGGGWNDNTSLLWAGKSLQEGATGGHSCPQAMKKWGWETRGGFGGGGGGCSSGGGGGGYIGGNAASNNDPEMDGEDGVSFISPLGILYTPALKVMEGHGEVNIKHYL"}, "B3": {"name": "ALKAL1 (residues 57–129, conserved C-terminal domain) (ligand, human, UniProt Q6UXT8 57-129, looked up)", "chain": "PSGSRSAEIFPRDSNLKDKFIKHFTGPVTFSPECSKHFHRLYYNTRECSTPAYYKRCARLLTRLAVSPLCSQT"}, "B4": {"name": "purified ALKAL1^F76E (used in Ba/F3 and SEC-MALLS assays) (ligand, human, UniProt Q6UXT8 57-129, looked up)", "chain": "B3 chain with F20E"}, "B5": {"name": "ALKAL2 (residues 78–152, conserved C-terminal domain) (ligand, human, UniProt Q6UX46 78-152, looked up)", "chain": "PSPEQRVEIVPRDLRMKDKFLKHLTGPLYFSPKCSKHFHRLYHNTRDCTIPAYYKRCARLLTRLAVSPVCMEDKQ"}, "B6": {"name": "purified ALKAL2^F97E (used in Ba/F3 and SEC-MALLS assays) (ligand, human, UniProt Q6UX46 78-152, looked up)", "chain": "B5 chain with F20E"}},
  "key": {"[1]": {"target": "B3", "assay": "SEC-MALS"}, "[2]": {"target": "B5", "assay": "ITC"}, "[3]": {"target": "B3", "assay": "ITC"}, "[4]": {"target": "T1, LTK_(TG–EGFL) (human LTK residues 63–420) (human, UniProt P29376 63-420)", "T1 sequence (looked up)": "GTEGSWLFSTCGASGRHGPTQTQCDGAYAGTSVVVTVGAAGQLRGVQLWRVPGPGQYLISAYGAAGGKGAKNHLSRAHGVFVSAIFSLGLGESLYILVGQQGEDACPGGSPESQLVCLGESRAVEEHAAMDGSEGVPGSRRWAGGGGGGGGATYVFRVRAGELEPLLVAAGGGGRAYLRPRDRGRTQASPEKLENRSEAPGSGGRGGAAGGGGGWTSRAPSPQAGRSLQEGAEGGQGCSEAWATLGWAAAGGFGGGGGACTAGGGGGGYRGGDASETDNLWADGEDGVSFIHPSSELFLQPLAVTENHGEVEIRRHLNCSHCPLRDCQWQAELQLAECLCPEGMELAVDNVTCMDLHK", "assay": "SEC-MALS"}, "[5]": {"target": "B1", "assay": "ITC"}, "[6]": {"target": "T1, LTK_(TG–EGFL) (human LTK residues …)", "assay": "ITC"}, "[7]": {"target": "B1", "assay": "SEC-MALS"}, "[8]": {"target": "full-length ALK ectodomain (ALKFL, residues 19–1038) (human, UniProt Q9UM73 19-1038)", "assay": "ITC"}},
  "note": "Positions count from the first letter of the chain named. Numbers in names are those of the source.",
  "data": [
    {"binder": "B1", "values": [
      {"measurement": "stoichiometry N", "setting": "[1]", "value": 1, "unit": "receptor per cytokine"}
    ]},
    {"binder": "B2", "values": [
      {"measurement": "fold reduction of affinity on removal of EGFL (against ALK_(TG–EGFL))", "setting": "[2]", "value": 30, "unit": "fold"},
      {"measurement": "fold reduction of affinity on removal of EGFL (against ALK_(TG–EGFL))", "setting": "[3]", "value": 4, "unit": "fold"}
    ]},
    {"binder": "B3", "values": [
      {"measurement": "stoichiometry N", "setting": "[4]", "value": 2, "unit": "receptors per cytokine"},
      {"measurement": "Kd", "setting": "[5]", "value": 600, "unit": "nM"},
      {"measurement": "Kd", "setting": "[6]", "value": 10, "unit": "nM"}
    ]},
    {"binder": "B4", "values": [
      {"measurement": "stoichiometry N", "setting": "[4]", "value": 1, "unit": "receptor per cytokine"}
    ]},
    {"binder": "B5", "values": [
      {"measurement": "stoichiometry N", "setting": "[7]", "value": 1, "unit": "receptor per cytokine"},
      {"measurement": "stoichiometry N", "setting": "[4]", "value": 2, "unit": "receptors per cytokine"},
      {"measurement": "Kd", "setting": "[5]", "value": 40, "unit": "nM"},
      {"measurement": "stoichiometry N", "setting": "[8]", "value": 1, "unit": "receptor per cytokine"},
      {"measurement": "Kd", "setting": "[6]", "value": 55, "unit": "nM"}
    ]},
    {"binder": "B6", "values": [
      {"measurement": "stoichiometry N", "setting": "[7]", "value": 1, "unit": "receptor per cytokine"}
    ]}
  ]
}
